Measured values as given in US20220267440A1 (ABSOS, published 2022).

How the values were obtained:
[1] = biological target: T1, recombinant CD47-Fc (Sino Biologics) (human, UniProt Q08722 19-139); assay: competition ELISA: HIS-tagged SIRP α binding to plate-bound CD47-Fc, antibody titrated
T1 construct: Bought reagent; also called human CD47-Fc; not shown: Fc

[2] = biological target: T2, recombinant human CD47 (Novoprotein cat no. C321, lot no. 0329689) (human, UniProt Q08722 19-139); assay: SPR (ProteOn XPR36), mAb captured on anti-mouse Fc, CD47 as analyte, 25 C, 1:1 model
T2 construct: Bought reagent
Description: (§1) Binding kinetics were measured at 25° C. using a BioRad ProteOn XPR36 optical biosensor equipped with GLM sensor chips and equilibrated with running buffer (HBS, 0.005% TWEEN-20, 0.1 mg/mL BSA, pH 7.4).
(§2) CD47 was tested in a three-fold dilution series starting at 100 nM.

[3] = biological target: T3, human CD47 extracellular domain with a histidine- (HIS-) tag (Sino Biological, China) (human, UniProt Q08722 19-139); assay: competition ELISA on huCD47 after 10A
T3 construct: extracellular domain; also called huCD47; huCD47 protein (Sino Biological, China 10161-H08H); not shown: histidine tag

[4] = biological target: T3, human CD47 extracellular domain with a …; assay: competition ELISA on huCD47, row G1 Alone
Description: (§3) A competition ELISA was performed to establish competitive binding bins. […] After washing, wells were incubated with an AlivaMab monoclonal antibody representing one of seven unique competition bins. After 1 hour the wells were washed and incubated with individual clonal anti-huCD47 AlivaMab hybridoma supernatants. […] Individual AlivaMab Mouse antibodies that were unable to bind in the presence of a mouse antibody are considered to be in the same epitope bin as that particular mouse antibody.

[5] = biological target: T3, human CD47 extracellular domain with a …; assay: competition ELISA on huCD47 after 27A
Description: as §3

[6] = biological target: T3, human CD47 extracellular domain with a …; assay: competition ELISA on huCD47 after 10A; cross-hatched cell
Description: as §3

[7] = biological target: T2, recombinant human CD47 (Novoprotein cat …); assay: SPR summary table, 25 C
Description: as §1, §2

[8] = biological target: T3, human CD47 extracellular domain with a …; assay: competition ELISA on huCD47 after 1A
Description: as §3

[9] = biological target: T3, human CD47 extracellular domain with a …; assay: competition ELISA on huCD47 after 35A
Description: as §3

[10] = biological target: T3, human CD47 extracellular domain with a …; assay: competition ELISA on huCD47 after 156A
Description: as §3

[11] = biological target: T3, human CD47 extracellular domain with a …; assay: competition ELISA on huCD47 after 141A
Description: as §3

B1: anti-CD47 AlivaMab antibody 107 (antibody, IgG1, V domains shown)
VH: QVQLQESGPGLMKPSETLSLTCTVSGGSISSYYWTWIRQPPGKGLEWIGYIYYSGSTNYNPSLKSRVTISVDTSKNQFSLKLSSVTAADTAVYYCARGRGALTAWGQGTLVTVSS
VL: DIQLTQSPSFLSASVGDRVTITCRASQDIGSYLAWCQQKPGKAPKLLIYAASTLQGGVPSRFSGSGSGTEFTLTISSLQPEDFATYYCQQLNSYPLTFGGGTKVEIK
notes: Chimeric AlivaMab Mouse mAb from hybridoma: human V, CH1 and upper hinge, mouse middle hinge, CH2 and CH3, human kappa light chain
IC50 [1]: 2.7 nM | Kd [2]: 0.163 nM | koff [2]: 0.00093 s⁻¹ | kon [2]: 5.7e+06 M⁻¹ s⁻¹ | competition matrix cell (no name or unit printed) [3]: 100 | competition matrix cell (no name or unit printed) [4]: 100 | competition matrix cell (no name or unit printed) [5]: 106 | competition matrix cell (no name or unit printed) [6]: 85 | Kd [7]: 0.16 nM | koff [7]: 0.00093 s⁻¹ | kon [7]: 5.7e+06 M⁻¹ s⁻¹

B2: anti-CD47 AlivaMab antibody 101 (antibody, IgG1, V domains shown)
VH: QVQLQESGPGLVKPSETLSLTCTVSGGSISFYYWTWIRQPPGKGLEWIGFIYYSGSTNYNPSLKSRVTISVDTSKNQFSLKLSSVTAADTAVYYCARGRGALTAWGQGTLVTVSS
VL: not shown
notes: as for B1
IC50 [1]: 15 nM | competition matrix cell (no name or unit printed) [3]: 92 | competition matrix cell (no name or unit printed) [4]: 100 | competition matrix cell (no name or unit printed) [6]: 61

B3: anti-CD47 AlivaMab antibody 161 (antibody, IgG1, V domains shown)
VH: QVQLQESGPGLVKPSETLSLTCTVSGGSISSYYWSWIRQPPGKGLEWIGYIYYSGSTNYNPSLKSRVTISVDTSKNQFSLKLSSVTAADTAVYYCARSRYFDLWGRGTLVTVSS
VL: DIQMTQSPSAMSTSVGDRVTITCRASQGISNFLAWFQQKPGKVPKRLIYAASSLQSGVPSRFSGSGSGTEFTLTISSLQPEDFATYYCLQHNSYPYTFGQGTKLEIK
notes: Chimeric AlivaMab Mouse mAb from hybridoma: human V, CH1 and upper hinge, mouse middle hinge, CH2 and CH3, human kappa light chain; also called clone 161; mAb 161
IC50 [1]: 3 nM | competition matrix cell (no name or unit printed) [8]: 106 | competition matrix cell (no name or unit printed) [9]: 109 | competition matrix cell (no name or unit printed) [4]: 100 | competition matrix cell (no name or unit printed) [10]: 112 | competition matrix cell (no name or unit printed) [5]: 105 | competition matrix cell (no name or unit printed) [6]: 89 | competition matrix cell (no name or unit printed) [11]: 107

B4: anti-CD47 AlivaMab antibody 164 (antibody, IgG1, V domains shown)
VH: QVQLQESGPGLVKPSETLSLTCTVSGGSISSYYWSWIRQPPGKGLEWIGYVYYSGGTNYNPSLKSRVTISVDTSKNQFSLKLSSVTAADTAVYYCARKRGTFDYWGQGTLVTVSS
VL: DIQMTQSPSSVSASVGDRVTITCRASQGISSWLAWYQQKPGKAPKLLIYAASSLQSGVPSRFSGSGSGTDFTLTISSLQPEDFATYFCQQANSFPLTFGGGTKVEIK
notes: Chimeric AlivaMab Mouse mAb from hybridoma: human V, CH1 and upper hinge, mouse middle hinge, CH2 and CH3, human kappa light chain; also called clone 164; mAb 164
IC50 [1]: 4.8 nM | competition matrix cell (no name or unit printed) [8]: 103 | competition matrix cell (no name or unit printed) [9]: 117 | competition matrix cell (no name or unit printed) [3]: 97 | competition matrix cell (no name or unit printed) [4]: 100 | competition matrix cell (no name or unit printed) [10]: 120 | competition matrix cell (no name or unit printed) [5]: 108 | competition matrix cell (no name or unit printed) [11]: 100

B5: anti-CD47 AlivaMab antibody 5 (antibody, IgG1, V domains shown)
VH: QVQLQESGPGLVKPSETLSLTCTVSGGSISSYYWSWIRQPPGKGLEWIGYIYYSGSTNYNPSLKSRVTISVDTSKNQFSLKLSSVTAADTAVYYCARGKGGTDYWGQGTLVTVSS
VL: DIQMTQSPSSVSASVGDRVTITCRASQGISSWLAWYQQKPGKAPKLLIYAASSLQSGVPSRFSGSGSGTDFTLTISSLQPEDFATYYCQQANSFPRTFGQGTKVEIK
notes: Chimeric AlivaMab Mouse mAb from hybridoma: human V, CH1 and upper hinge, mouse middle hinge, CH2 and CH3, human kappa light chain; also called clone 5; mAb 5
IC50 [1]: 3.5 nM | competition matrix cell (no name or unit printed) [9]: 97 | competition matrix cell (no name or unit printed) [3]: 93 | competition matrix cell (no name or unit printed) [6]: 73

B6: anti-CD47 AlivaMab antibody 85 (antibody, IgG1, V domains shown)
VH: QVQLQESGPGLVKASETLSLTCTVSGGSISGYYWSWIRQPAGKGLEWIGRIYNSGSTNYNPSLKSRVTMSVDTSKNQFSLKLSSVTAADTAVYYCARQTYLDYWGQGTLVTVSS
VL: DIQMTQSPSAMSASVGDRVTITCRASQGISIYLAWFQQKPGKVPKRLIYAASSLQSGVPSRFSGSGSGTEFTLTISSLQPEDFATYYCLQHNSYPLTFGGGTKVEIK
notes: Chimeric AlivaMab Mouse mAb from hybridoma: human V, CH1 and upper hinge, mouse middle hinge, CH2 and CH3, human kappa light chain; also called clone 85; mAb 85
IC50 [1]: 4.9 nM | competition matrix cell (no name or unit printed) [8]: 98 | competition matrix cell (no name or unit printed) [9]: 104 | competition matrix cell (no name or unit printed) [4]: 100 | competition matrix cell (no name or unit printed) [10]: 95 | competition matrix cell (no name or unit printed) [5]: 98 | competition matrix cell (no name or unit printed) [6]: 83 | competition matrix cell (no name or unit printed) [11]: 102

B7: anti-CD47 AlivaMab antibody 91 (antibody, IgG1, V domains shown)
VH: QVQLQESGPGLVKPSETLSLTCTVSGGSISTYYWSWIRQPPGKGLEWIGYIYYSGTTNYNPSLKSRVTISVDTSKNQFSLKLSSVTAADTAVYYCARKRDAFDIWGQGTMVTVSS
VL: EIVLTQSPGTLSLSPGERATLSCRASQSVSSTYLAWSQQKPGQAPRLLIYGASSRATGIPDRFSGSGSGTDFTLTISRLEPEDFAVYYCQQYGSSRTFGQGTKVEIK
notes: Chimeric AlivaMab Mouse mAb from hybridoma: human V, CH1 and upper hinge, mouse middle hinge, CH2 and CH3, human kappa light chain; also called clone 91; mAb 91
IC50 [1]: 2.1 nM | Kd [2]: 0.154 nM | koff [2]: 0.00111 s⁻¹ | kon [2]: 7.2e+06 M⁻¹ s⁻¹ | Kd [7]: 0.15 nM | koff [7]: 0.00111 s⁻¹ | kon [7]: 7.2e+06 M⁻¹ s⁻¹

B8: anti-CD47 AlivaMab antibody 102 (antibody, IgG1, V domains shown)
VH: QVQLQESGPGLVKPSETLSLTCTVSGGSISNYYWSWIRQPPGKGLEWIGYIYYSGSTNYNPSLKSRVTISVDTSKNQFSLKLSSVTAADTAVYYCARKRDTFDIWGQGTMVTVSS
VL: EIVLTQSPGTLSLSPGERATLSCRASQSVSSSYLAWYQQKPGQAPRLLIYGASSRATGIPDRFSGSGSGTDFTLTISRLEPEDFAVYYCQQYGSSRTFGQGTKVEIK
notes: as for B1
IC50 [1]: 2.3 nM | Kd [2]: 0.32 nM | koff [2]: 0.00221 s⁻¹ | kon [2]: 6.9e+06 M⁻¹ s⁻¹ | Kd [7]: 0.32 nM | koff [7]: 0.00221 s⁻¹ | kon [7]: 6.9e+06 M⁻¹ s⁻¹

B9: anti-CD47 AlivaMab antibody 106 (antibody, IgG1, V domains shown)
VH: QVQLQGSGPGLVKPSETLSLTCTVSGGSINNYYWSWIRQPPGKGLEWIGYIYYSGSTNSNPSLKSRVTISVDTSKNQFSLKLNSVTAADTAVYYCARKRDAFDIWGQGTMVTVSS
VL: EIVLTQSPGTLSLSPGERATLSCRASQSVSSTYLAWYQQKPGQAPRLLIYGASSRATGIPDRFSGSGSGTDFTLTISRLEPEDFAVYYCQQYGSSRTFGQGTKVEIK
notes: as for B1
IC50 [1]: 2.9 nM

B10: anti-CD47 AlivaMab antibody 87 (antibody, IgG1, V domains shown)
VH: QVQLQESGPGLVKPSETLSLTCTVSGGSISSYYWSWIRQPPGKGLEWIGYIYYSGSTNYNPSLKSRVTISVDTSKNQFSLKLNSVTAADTAVYYCARKRAFLDYWGQGTLVTVSS
VL: DIQMTQSPSSLSASVGDRVTITCRASQGISNYLAWFQQKPGKAPKSLIYAASSLQGGVPSKFSGSGSGTDFTLTISSLQPEDFATYYCQQYNSYPLTFGGGTKVEIK
notes: Chimeric AlivaMab Mouse mAb from hybridoma: human V, CH1 and upper hinge, mouse middle hinge, CH2 and CH3, human kappa light chain; also called clone 87; mAb 87
IC50 [1]: 3 nM

B11: anti-CD47 AlivaMab antibody 14 (antibody, IgG1, V domains shown)
VH: QVQLQESGPGLVKPSETLSLTCTVSGGSISSYYWSWIRQPPGKGLEWIGYIYYSGSTNYNPSLKSRVTISVDTSKNQFSLKLSSVTAADTAVYYCARKRGLDIWGQGTMVTVSS
VL: not shown
notes: Chimeric AlivaMab Mouse mAb from hybridoma: human V, CH1 and upper hinge, mouse middle hinge, CH2 and CH3, human kappa light chain; also called clone 14; mAb 14
IC50 [1]: 3.5 nM

B12: anti-CD47 AlivaMab antibody 10 (antibody, IgG2a, V domains shown)
VH: QVQLQESGPGLVKPSETLSLTCTVSGGSIRTYYWSWIRQPPGKGLEWIGYIYYSGSTNYNPSLKSRVTISVDTSKNQFSLKLSSVTAADTAVYYCARKKGAFDIWGQGTMVTVSS
VL: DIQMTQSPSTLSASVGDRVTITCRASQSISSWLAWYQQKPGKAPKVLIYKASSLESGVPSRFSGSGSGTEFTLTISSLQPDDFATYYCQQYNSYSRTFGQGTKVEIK
notes: Chimeric AlivaMab Mouse mAb from hybridoma: human V, CH1 and upper hinge, mouse middle hinge, CH2 and CH3, human kappa light chain; also called clone 10; mAb 10
IC50 [1]: 4.7 nM

B13: anti-CD47 AlivaMab antibody 144 (antibody, IgG1, V domains shown)
VH: QVQLQESGPGLVKPSETLSLTCTVSGGSISSYYWSWIRQPPGKGLEWIGYIYYSGTTNYNPSLKSRVTISVDTSKNQFSLKLSSVTAADTAVYYCARKRGEFDYWGQGTLVTVSS
VL: DIQMTQSPSSVSASEGDRVTITCRASQGISRWLAWYQQKPGKAPKLLIYAASSLQSGVPSRFSGSGSGTDFTLTISSLQPEDFATYYCQQANSFPLTFGGGTKVEIK
notes: Chimeric AlivaMab Mouse mAb from hybridoma: human V, CH1 and upper hinge, mouse middle hinge, CH2 and CH3, human kappa light chain; also called clone 144; mAb 144
IC50 [1]: 10 nM

B14: anti-CD47 AlivaMab antibody 153 (antibody, IgG1, V domains shown)
VH: QVQLQESGPGLVKPSETLSLTCTVSGGSINYYYWSWIRQPPGKGLEWIGYIYYSGSTNYNPSLKSRVTISVDTSKNQFSLKLSSVTAADTAVYYCARKRSSYDYWGQGTLVTVSS
VL: DIQMTQSPSAMSASVGDRVTITCRASQGISNYLAWFQQKPGKVPRRLIYAASSLQSGVPSRFSGSGSGTEFTLTISSLQPEDFATYYCLQHNSYPWTFGQGTKVEIK
notes: Chimeric AlivaMab Mouse mAb from hybridoma: human V, CH1 and upper hinge, mouse middle hinge, CH2 and CH3, human kappa light chain; also called clone 153; mAb 153
IC50 [1]: 27.9 nM

B15: anti-CD47 AlivaMab antibody 90 (antibody, IgG1, V domains shown)
VH: QVQLQESGPGLVKPSETLSLTCTVSGGSINNYYWSWIRQPPGKGLEWIGYIYYSGSTNYHPSLKSRVTISVDTSKNQFSLKLTSVTAADTAVFYCARGRRALTAWGQGTLVTVSS
VL: DIQVTQSPSFLSASVGDRVTITCRASQGISSYLAWYQQKPGKAPKLLIYAASTLQSGVPSRFSGSGSGTEFTLTISSLQPEDFATYYCQQLNSYPLTFGGGTKMEIK
notes: Chimeric AlivaMab Mouse mAb from hybridoma: human V, CH1 and upper hinge, mouse middle hinge, CH2 and CH3, human kappa light chain; also called clone 90; mAb 90
IC50 [1]: 53.6 nM

B16: anti-CD47 AlivaMab antibody 143 (antibody, IgG1, V domains shown)
VH: QVQLQESGPGLVKPSETLSLTCTVSGGSINNYYWSWIRQPPGKGLEWIGYIYYSGSTNYNPSLRSRVTISVDTSKNQFSLKLSSVAAADTAVYYCARQKGMDVWGQGTTVTVSS
VL: DIQMTQSPSAMSASVGDRVTITCRASQGISNYLAWFQQKPGKVPKRLIYAASSLQSGVPSRFSGSGSGTEFTLTISSLQPEDFATYYCLQHNSYPPTFGQGTKVEIK
notes: Chimeric AlivaMab Mouse mAb from hybridoma: human V, CH1 and upper hinge, mouse middle hinge, CH2 and CH3, human kappa light chain; also called clone 143; mAb 143
IC50 [1]: 96 nM
